Biological target: RecA (UniProt P0A7G6)
Conditions: FITC-avidin confocal microscopy, permeabilized HEp-2 nuclei in agarose, 37 C; no signal without recA or with BSA

Sequence of RecA (P0A7G6 2-353): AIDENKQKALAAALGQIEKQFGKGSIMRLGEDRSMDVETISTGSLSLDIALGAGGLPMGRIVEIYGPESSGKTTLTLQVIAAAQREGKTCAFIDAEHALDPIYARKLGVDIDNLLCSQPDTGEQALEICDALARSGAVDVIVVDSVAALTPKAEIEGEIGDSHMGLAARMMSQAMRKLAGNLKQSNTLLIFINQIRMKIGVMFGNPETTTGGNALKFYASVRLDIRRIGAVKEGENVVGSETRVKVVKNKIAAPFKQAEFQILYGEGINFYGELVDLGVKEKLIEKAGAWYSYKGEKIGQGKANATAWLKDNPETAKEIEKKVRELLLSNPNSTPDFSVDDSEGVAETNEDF

human chromosome 1 alpha-satellite targeting polynucleotides (nick-translated pUC 1.77, denatured)
binding (% nuclei with signal): > 25

Source: patent US5763240
